Assay results: PMC6453957, “Specific inhibition of splicing factor activity by decoy RNA oligonucleotides”

Molecular target: T1, RBFOX1 RRM (UniProt Q9NWB1 109-208)
T1 sequence: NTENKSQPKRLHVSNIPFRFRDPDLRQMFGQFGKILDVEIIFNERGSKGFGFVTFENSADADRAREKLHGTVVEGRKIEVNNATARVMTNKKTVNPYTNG
Test: NMR 1H-15N HSQC titration; 313 K; very large perturbations; switchSENSE titration: T100 (10 mM Tris-HCl pH 7.4, 100 mM NaCl, 0.05% Tween20), 37 C; sizing: T40 (same with 40 mM NaCl), 37 C; NMR: NMR buffer (RNA in T40), 313 K
Conditions: protein: recombinant; tags: N-terminal 6xHis; single strand

Binder: UGCAUGU (ssRNA) [RBFOXi NMR RNA]
- binding result: binds
